Assay results: publication PMC3179519

Molecular target: Salmonella SJW1660 flagellin capable of forming L-type straight filaments (Salmonella (S. typhimurium)) (UniProt P06179)
Assay: co-sedimentation; monomers of SJW1660 flagellin and FliC(XynA) mixed at 1:1 to 1:5 (w/w) in 20 mM Tris-HCl, 150 mM NaCl (pH 7.8), polymerized with ammonium sulfate (0.4-0.6 M), 2 days at room temperature; centrifuged, pellet dissolved in buffer without AS, SDS-PAGE with densitometry; filaments also seen by dark-field microscopy and AFM

FliC(XynA) fusion protein (flagellin-xylanase A chimera) (from UniProt P18429 29-213)
band intensity of FliC(XynA) in the copolymer pellet, 1:1 mixing ratio (FliC band 49.3): 49.6
band intensity of FliC(XynA) in the copolymer pellet, 1:2 mixing ratio (FliC band 50.7): 34.2
